Data taken from article PMC7642778.

How the values were obtained:
[1] = molecular target: monothiol glutaredoxin-1 from Clostridium oremlandii (C16S) (Clostridium oremlandii (strain OhILAs)); assay: crystal structure; m-cGrx1–cMsrA complex (β3-swap), formed by incubation with 5 mM methionine sulfoxide at 4°C for 2 h and purified on Superdex 75; crystals from 0.1 M sodium phosphate/citric acid pH 4.2, 0.4 M potassium phosphate (dibasic)/1.6 M sodium phosphate (monobasic), 20°C
[2] = molecular target: monothiol glutaredoxin-1 from Clostridium oremlandii (C16S) (Clostridium oremlandii (strain OhILAs)); assay: crystal structure; m-cGrx1 alone (β1-swap), formed in the presence of hydrogen peroxide; crystals from 0.1 M HEPES pH 7.5, 20% PEG 400, 8% PEG 8000, 20°C
[3] = molecular target: dithiol glutaredoxin-1 from Clostridium oremlandii (strain OhILAs) (Clostridium oremlandii (strain OhILAs)); assay: crystal structure; d-cGrx1 alone; crystals from 0.1 M sodium phosphate/citric acid pH 4.2, 0.2 M lithium sulfate, 20% PEG 1000, 20°C

methionine sulfoxide reductase A from Clostridium oremlandii (enzyme)
stoichiometry N (cGrx1 per cMsrA (four cGrx1 : two cMsrA)) [1]: 2

monothiol glutaredoxin-1 from Clostridium oremlandii (C16S) (enzyme)
stoichiometry N [2]: 4
stoichiometry N [1]: 4

dithiol glutaredoxin-1 from Clostridium oremlandii (strain OhILAs) (enzyme)
stoichiometry N [3]: 2
